Experimental findings from the DeepSol protein solubility set are described below.

This series can be described thus: soluble on expression in E. coli; label from the status in PepcDB or PDB records.
“SDTNSNQGIAFVHGTRDHREDAYGGYWKIDFIQSISQTLAKPENHYVVHCDFSQYMWHEDAANCVANQLLEFINDKNVSSLTVYTHSDGANIMRWILSNPTYDGRYMTLKRKISQVIAIAPSSGGTPLADEVLNGGIFETSLAWLLGYLSDAVKQQRVGDMLIYNEELLLGSKGRPSLSIPFKVIVGTDVYASPFSTSSYCNGYMLNSGLKIAKLYLNQCADGFLDCESQAQAGEVWFYDIDKTDYNLPLSHNQSRHSCFGLDQI”: the “soluble on expression in E. coli” value is “not soluble”. Consider “SEGSASEVLKEWIVTGKKKNKKKKSKPKPASEASGSAPDSSKSAPIQEEQPASSEKGSINGYHVNGAINDAESVDSLSEGLETLSIDARELEDPEFAAAETLDRTGSVLENGVSDFEPKSLTAHSISNVQQSRNAAKSLSRTTPGAQVSNLGMENVPLSSTNKKLGSNIEKSVKDLQRCTVSLARYRVVVKEEMDASIKKMKQAFAELQSCLMDREVALLAEMDKVKAEAMEILLSRQKKAELLKKMTDVAVRMSEEQLVELRADIKHFVSERKYDEDLGRVARFTCDVETLKQSIDSFGQVSHPKNSYSTRSRCSLVAPVSLSGPSDGSAASSSPDASVPSLPGANKRNCAPREASAAMTNSSDRPCQAHREVFPGNRRGGQGYRAQSQKTADPSNPGRHDSVGRYRNSSWYSSGPRYQGVPPQAPGNAGERSRPYSAGTNGTGAISEPSPPKPSFKKGLPQRKPRASQAEAANS”, for which the “soluble on expression in E. coli” value was “not soluble”. For “SEKKECPEKSSSSEEELPRRDSGSSRNIDASKLIRLQGSRKLLVDNSIRELQYTKTGIFFQAEACVTNDTVYRELPCVSETLCDISHFFQEDDETEAEPLLFRAVPECQLSGGDIPSVSEEQESSEGQDSGDICSEENQIVSSYASKVCFEIEEDYKNRQFLGPEGNVDVELIDKSTNRYSVWFPTAGWYLWSATGLGFLVRDEVTVTIAFGSWSQHLALDLQHHEQWLVGGPLFDVTAEPEEAVAEIHLPHSISLQAGEVDVSWFLVAHFKNEGMVLEHPARVEPFYAVLESPSFSLMGILLRIASGTRLSIPITSNTLIYYHPHPEDIKFHLYLVPSDALLTKAIDDEEDRFHGVRLQTSPPMEPLNFGSSYIVSNSANLKVMPKWISSL”, the “soluble on expression in E. coli” value is listed as “soluble”. For the sequence “SEPTAPSLTEEDLTEVKKDALENLRVYLCEKIIAERHFDHLRAKKILSREDTEEISCRTSSRKRAGKLLDYLQENPKGLDTLVESIRREKTQNFLIQKITDEVLKLRNIKLEHLKGLKCSSCEPFPDGATNNLSRSNSDESNFSEKLRASTVMYHPEGESSTTPFFSTNSSLNLPVLEVGRTENTIFSSTTLPRPGDPGAPPLPPDLQLEEEGTCANSSEMFLPLRSRTVSRQ”, the “soluble on expression in E. coli” value is on record as “soluble”. Turning to “SESICNSLNSKLEPTLENLENLDVSAFQAPEDLLDGCRIYLCGFSGRKLDKLRRLINSGGGVRFNQLNEDVTHVIVGDYDDELKQFWNKSAHRPHVVGAKWLLECFSKGYMLSEEPYIH”, the “soluble on expression in E. coli” value is reported as “soluble”. In the case of “SESQSEEIDCNDKDLFKAVDAALKKYNSQNQSNNQFVLYRITEATKTVGSDTFYSFKYEIKEGDCPVQSGKTWQDCEYKDAAKAATGECTATVGKRSSTKFSVATQTCQITPAEGPVVTAQYDCLGCVHPISTQSPDLEPILRHG”, the “soluble on expression in E. coli” value is “soluble”. Regarding “SFDNLRNELSRPYGILFINNKIFLEFISKSIQRGSRIITVGDYVSRVLEENGIVPFLEVIDGKTKRTITQNRAITRNKEYKVTNEAGKIRFEIFEIMENILKDREGGVVFVDGEEDLLVIPVTLSANHGDIVIYGQPNAGAVVIIVNEMIRWRVRDILEKAIVKE”, the “soluble on expression in E. coli” value was “not soluble”.

As for “SFLSEAGARPRAGEISASERRKWVEVFKACDEDNKGYLSREDFKVAIVMLFGYKPSKIEADAVMSSANPDTSGVSLEGFLNVVQRKKEAQLYRNEIRHIFTAFDVHYRGFLTLEDFKRAFSQVAPKLPSRTVLEVFREADQDSDGHVSFRDFEYAMNHGKAK”, the “soluble on expression in E. coli” value is listed as “soluble”. Take “SFYSGLLTEGGRKETDMREAASLRQQRRMKQAVQFIHKDSADLLPLDGLKKLGSSKDMQPHNILQRRLMETNLSKLRSGPRVPWASKTNKLNQAKSEGLKKSEEDDMILVSCQCAGKDVKALVDTGCLYNLISLACVDRLGLKEHVKSHKHEGEKLSLPRHLKVVGQIEHLVITLGSLRLDCPAAVVDDNEKNLSLGLQTLRSLKCIINLDKHRLIMGKTDKEEIPFVETVSLNEDNTSEA”: the “soluble on expression in E. coli” value is recorded as “soluble”. Under “SGCRCCKIIQSYLFDPVQVPSPGYVNEVNSCKLDEDDTDKLKGKWSSEVLVQKNDPQRQGSKKTESSSRTADPWEPCWPHQGPLPQGDAGGEHHACGVNGIGPAATPQPTGNSSPTQDDRGSWASTANTVPPTQPFLEGGGTRKQDCVLLASEGTQVMRNGDSRAPSEAESFALEVQDHVFQIPAPDYLQHWGPAGDNVDHNEKDCVFKNHTEDESLEGIQPPVGEHGLNTPFSVRRSWDSLNEDVETEVLSICFNEKGPVHAMPVVDSGNRQEDTHGSDGDGDGEIVDEDAAVAEALAALEAATAGEDLDETD” stands “soluble”; under “SGFLEQRLGHCLRQMAEKGLEALLVTHLTNSYYLTGFSGTAATVLITAKRRVLITDSRYTLLAKASVEGFDIIESRTPLKVVAELLEADQIDCLGFEDQVSFSFYQAMQAELSGITLLAQSGFVEHLR”, “not soluble”; under “SGPLDEYAYSWANHLLANPVNCATLEITLGPAEFLLRSDAQLAIAGGDLNATLDGRPIANWSRFYAKQGQTLRFGLPRNGLRAYLAVQGGFTVSPQLGSVSTHVRQGLGGLTSQGLALQTGDDLVFSAQQIAQKPVQMTFRFRPDYNLPLRLRVIESYQYQAFSPSAMESFYRSEFIVTPNSDRMGYRLQGETISPPDQAILSEGIALGAIQVPPNGQPIILLNDRQTIGGYPKLGCVARIDLPRLAQAKPGHSVRFVAGDLAGLQAVWCQWARFFGY”, “not soluble”.

Turning to “SGRKRFITDSYPVVKKREGPPGHNKGELAPELGEDTQSLSQEETELELLRQFDLAWQYGPCTGITRLQRWHRAEQMGLKPPVEVYQVLKTHPEDSRFQCSLWHLYPL”, the “soluble on expression in E. coli” value was “soluble”. With “SGSNETLPDNFGKGGWKICFKIEPPATLGNGMLKISFHSDYNRKPHPDDIVEETIKDMWKRRKEVNPKMWNALKFRVDSYSTFHAQGASVVKLNLGLTDYASYQGSGSLASPLTFFQSPEEGAPERHLPLSLGNAGIVLTSDNFIILLERSEQVGEGVGRWVLPGGHPEPSHVNIPDSYLTQSYEGTRDMCLTIERELYNSILMEITEEVGLRSSELFTLQLLGMVQRERDKRPVLVGHTRTTLSKSEMEARFCCQRIHTEACRILFCDIRQVETFFQENEQIMPEHRGALQLYFESSVCQQDWKLCKE”, the “soluble on expression in E. coli” value is “soluble”.

Turning to “SGWVWNQFFVLEEYTGTDPLYVGKLHSDMDRGDGSIKYILSGEGAGIVFTIDDTTGDIHAIQRLDREERSQYTLRAQALDRRTGRPMEPESEFIIKIQD”, the “soluble on expression in E. coli” value is “soluble”.

Consider “SHLVVESFPSYRDVTLFEGKRVSFYKRAQILVADTWSVLEGKGDGCFKDISSITMFADYRLPQVLAHLGALKYSDDLLKKLLKGEMLSYGDRQEVEIRGCSLWCVELIRDCLLELIEQKGEKPNGEINSILLDYYLWDYAHDHREDMKGIPFHRIRCIYY”, for which the “soluble on expression in E. coli” value was “soluble”. On to “SHMAGHQIVHVRGDSETDLEALFNAVMNPKTANVPQTVPMRLRKLPDSFFKPPEPKSHSRQASTDAGTAGALTPQHVRAHSSPASLQLGAVSPGTLTPTGVVSGPAATPTAQHLRQSSFEIPDDV”, for which the “soluble on expression in E. coli” value is on record as “soluble”. As to “SIDEEMQVEAAKALREALQKYDRGRGKWHGTGKSIEPAKLGDEEVWRAELAATEVARDVDLGGRWHPAVVLGVGEQDLSVGVEDGPAKGRVPRSDIKWMKGSFKDNFKLGDVVLVRKADEDWSLRQVPEVQGGFMAMDVNTGRVLAMQGGFSYQDSVFNRATQALRQPGSSFKPFVYAAALDSGYSPATIVVDAPIEVNTPQGLWRPKNASNKFYGPTPLRTGIERSRNLMTIRLAQEVSMPVVAGYAERFGVYDHMGPFLANALGSEETTLYKMVAAYAMFANGGERVEPTLVDRIQDRFGKTIYRHDQRDCVDCLSDRLEPDQAPRIVTNRERVMNAITAYQLTSMMRGVVERGTASGTVKLPVPTAGKTGTTNDAKDVWFIGFTSNIVAGCYIGYDRPQPLGRGASGGGMCGPVFQSFMTEAVKKFGGGPF”, the “soluble on expression in E. coli” value is reported as “not soluble”.
